Experimental data: patent US20230227832, “ANTICANCER APTAMERS AND USES THEREOF” (CONSIGLIO NAZIONALE DELLE RICERCHE, published 2023)

Columns and labels:
Serum albumin (HSA) = Serum albumin (HSA) (Homo sapiens, UniProt P02768 P02768:25-609); test: ELONA; plate coated with 30 nM HSA; figure legend says bovine serum albumin; settings: tags: Sigma Aldrich; label: biotin
Procedure: For ELONA, wells of a 96-well High Binding microplate (Nunc MaxiSorp) were left uncoated or coated with exosomes (4 μg) o.n. All the subsequent steps were performed at room temperature. Following incubation, the plate was blocked with 300 μl 3% BSA (AppliChem) in PBS for 2 hours and incubated with 100 μL biotinylated aptamers (Tebu-bio), dissolved in PBS for 2 hours. Then the plate was washed three times with 300 μl PBS and streptavidin-HPR dissolved in 100 μl PBS (Sigma Aldrich) was added with dilution 1:10000. After 1 hour of incubation, the plate was washed three times before the addition of the TMB developing solution. The reaction was stopped with 0.16 M sulfuric acid and signal strength was analyzed by measuring absorbance at 450 nm with a microplate reader (Thermo Scientific).
MDA-MB-231-derived exosomes and increasing concentrations of aptamer (ex-50.T or control) were used to calculate the binding affinity. The Kd was determined by means of GraphPad Prism. To verify the binding on human serum alumina (HSA), the plate coating was performed at 30 nM HSA (Sigma Aldrich).

[1] = biological target: T1, Gremlin-1 (GREM1), recombinant human (Homo sapiens, UniProt O60565 O60565:25-184); test: ELONA; room temperature, PBS; biotinylated aptamer, streptavidin-HRP; settings: label: biotin
T1 sequence: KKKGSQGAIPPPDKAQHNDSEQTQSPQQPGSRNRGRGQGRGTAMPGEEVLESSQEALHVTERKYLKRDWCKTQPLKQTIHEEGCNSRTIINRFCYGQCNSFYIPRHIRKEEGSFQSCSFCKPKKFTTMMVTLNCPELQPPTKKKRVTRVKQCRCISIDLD

Serum albumin (HSA), sequence (P02768 25-609, one chain of several): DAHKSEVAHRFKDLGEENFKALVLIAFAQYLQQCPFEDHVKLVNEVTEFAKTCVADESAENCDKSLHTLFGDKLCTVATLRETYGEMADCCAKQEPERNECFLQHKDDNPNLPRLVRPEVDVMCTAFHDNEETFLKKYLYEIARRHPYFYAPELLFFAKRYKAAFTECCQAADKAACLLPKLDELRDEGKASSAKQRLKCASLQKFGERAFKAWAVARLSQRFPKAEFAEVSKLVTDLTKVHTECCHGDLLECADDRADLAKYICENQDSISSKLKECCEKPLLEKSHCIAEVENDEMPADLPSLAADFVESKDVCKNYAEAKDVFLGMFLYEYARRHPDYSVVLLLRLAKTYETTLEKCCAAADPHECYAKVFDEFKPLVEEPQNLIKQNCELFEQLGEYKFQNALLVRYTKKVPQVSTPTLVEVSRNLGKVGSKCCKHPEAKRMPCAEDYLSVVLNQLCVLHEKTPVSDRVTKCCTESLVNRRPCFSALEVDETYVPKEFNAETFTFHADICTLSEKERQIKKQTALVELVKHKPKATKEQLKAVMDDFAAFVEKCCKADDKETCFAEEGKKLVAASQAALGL

For UGUGGCAGUUAAGAAUAGAUCUUCGCUGCGAUU (ssRNA, 2'-F pyrimidines (2'-F-C, 2'-F-U; per library chemistry)) [ex-50.T], the binding result (Serum albumin (HSA)) was “no binding” and the Kd [1] was 37.7 nM.
